Data set [1] concerns the target Interferon gamma (IFN-γ) (Homo sapiens, UniProt P01579 P01579:24-166). As to the kind of experiment: FRET ratiometric photodiode aptasensor; aptamer on AF555-streptavidin/biotin-BSA surface; signal change 0.1-10 pM, LOD 1 pM, saturated at 100 pM-1 nM; 1x PBS; reversible by 55 C water wash. As to conditions: tags: R&D Systems, recombinant human IFN-γ; chain copies: 2; label: Cy5 (5'), biotin (3'); hairpin (self-hybridizes without IFN-γ). The source says:
To package the PD array for ratiometric aptasensing experiments, a 50 μm tall PDMS microfluidic channel with one inlet and one outlet hole was fabricated via a standard SU-8 photolithography process, and then bonded the microfluidic channel over the PD array via O₂ plasma. Tubing was inserted into the inlet and outlet holes to allow for injection and removal of analytes. To achieve ratiometric aptasensing […], the surface of the array was functionalized by sequentially introducing BSA, AF555 conjugated streptavidin, and biotinylated Cy5 labeled IFN-γ DNA aptamers. After each analyte's respective incubation period, the extra unbonded analyte was removed by washing with 9 mL deionized water.
Following this surface functionalization procedure, two aptasensing experiments were conducted where, in each experiment, the device was kept in 1×PBS and sequentially introduced 0.1 pM-1 nM analyte in 15-minute intervals followed by a water washing step and reintroduced analytes and water washing as 2nd round via the microfluidic channel (FID. 10a-c). During introducing each concentration, an upright fluorescence microscope was used to illuminate the PD array with pulses of 550/15 nm excitation light (Ilight=100%, 260 mW) which have tₒₙ/toff=18/162 s (i.e., 3 min period) to alleviate the photobleaching effect. […]

Data set [2] concerns the target Streptavidin (UniProt P22629 P22629:25-183). In words: specificity control; 0.1 pM-1 nM free streptavidin, <5% signal change, 1x PBS; biotinylated aptamer already immobilised on surface streptavidin. The note with it: tags: Sigma Aldrich; chain copies: 4; label: Cy5 (5'), biotin (3'); hairpin (self-hybridizes without IFN-γ). Here is the method:
After each analyte's respective incubation period, the extra unbonded analyte was removed by washing with 9 mL deionized water.
Following this surface functionalization procedure, two aptasensing experiments were conducted where, in each experiment, the device was kept in 1×PBS and sequentially introduced 0.1 pM-1 nM analyte in 15-minute intervals followed by a water washing step and reintroduced analytes and water washing as 2nd round via the microfluidic channel (FID. 10a-c). During introducing each concentration, an upright fluorescence microscope was used to illuminate the PD array with pulses of 550/15 nm excitation light (Ilight=100%, 260 mW) which have tₒₙ/toff=18/162 s (i.e., 3 min period) to alleviate the photobleaching effect.
For the first experiment, streptavidin was sequentially introduced as a control to evaluate the specificity of the array. […] For the second experiment, IFN-γ was sequentially introduced to evaluate the sensibility of the array. […] Due to this conformation change, less AF555 emission light will excite the Cy5 molecules, leading to the observed increase [decrease] in AF555 [Cy5] pixel signals.

Interferon gamma (IFN-γ), sequence (P01579 24-166, one chain of several): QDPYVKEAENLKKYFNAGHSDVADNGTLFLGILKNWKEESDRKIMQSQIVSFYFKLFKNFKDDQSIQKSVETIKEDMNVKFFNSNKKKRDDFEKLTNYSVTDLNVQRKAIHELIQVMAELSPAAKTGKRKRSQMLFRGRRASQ
Streptavidin, sequence (P22629 25-183, one chain of several): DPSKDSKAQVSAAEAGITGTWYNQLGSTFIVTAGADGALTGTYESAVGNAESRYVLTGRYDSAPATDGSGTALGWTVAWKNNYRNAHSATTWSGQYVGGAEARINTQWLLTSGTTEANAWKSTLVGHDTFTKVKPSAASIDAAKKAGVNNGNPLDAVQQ

Take GGGGTTGGTTGTGTTGGGTGTTGTGTCCAACCCCTTT (ssDNA, 5' Cy5, 3' biotin [1 (5' Cy5), 37 (3' biotin)]) [IFN-γ DNA aptamer]: the binding result is on record as “binds” in data set [1] and “no binding” in data set [2].

For the origin of these results see patent publication US20220278152, “SPECTRALLY FILTERED PHOTODIODE PAIR” (UNIVERSITY OF MASSACHUSETTS, published 2022).
